Assay results published in the DeepSol protein solubility set.

Experiment: soluble on expression in E. coli; label from the status in PepcDB or PDB records

Row | Sequence | soluble on expression in E. coli
1 | DEPKVLIAEVVVEGATPELEQLVYQVISTRPGSTTTRTQLQQDTNAIFATGFFADVNAVPRDTPLGVRITFVVRPYPVLRAVQVAGNQVLTQEKVNEIFAPQIGRTLNLRELQAGIEKINTFYRDNGYILGQVVGTPQVDPDGVVTLQVAEGVVEQVTYRFLNKEGEPTKQRTRDFVISREMDTQPGVVLNQKTVQADLRRLFELGLFEDVQVALEPGQNPRRVNLILNIKERNT | soluble
2 | MKSNPAIQAAIDLTAGAAGGTACVLTGQPFDTMKVKMQTFPDLYRGLTDCCLKTYSQVGFRGFYKGTSPALIANIAENSVLFMCYGFCQQVVRKVAGLDKQAKLSDLQNAAAGSFASAFAALVLCPTELVKCRLQTMYEMETSGKIAKSQNTVWSVIKSILRKDGPLGFYHGLSSTLLREVPGYFFFFGGYELSRSFFASGRSKDELGPVPLMLSGGVGGICLWLAVYPVDCIKSRIQVLSMSGKQAGFIRTFLNVVKNEGITALYSGLKPTMIRAFPANGALFLAYEYSRKLMMNQLEAY | soluble
3 | MVWTYTYDLDNQLISANKTGSSNSLAYDGAGRLRQTTLAGTITGLTYDGVDLVAEYNSGGTLLRRYVHGPGVDEPLVWYEGTTTTNKTWLYQDQLGSVIGTANSAGTSTAIHSYGPYGEPNIATGIRFRYTGQQFLGSLNLYYYKARFYSPALGRFLQTDPIGIADDLNLYAYVGNNPINFNDPSGLSAAAASMLLGKLGSWGRENAGTLTEIGIGFTPAGFYTDLYSAVAGRTPITGDSLSGWERVAILIPGVSEIRNAGRIGSSIQGVAESTIKQVNPTNLIPTQTRSEMSGSQIKRLEKDMRTNGFDQNKPIDAVRRTDGRLEIQDGHHRVEAAKRAGIDQIPVQIWEKLEHHHHHH | not soluble
4 | MSAAEIDEGVFETTATIDNGSFGTRTIRFETGRLALQAAGAVVAYLDDDNMLLSATTASKNPKEHFDFFPLTVDVEERMYAAGRIPGSFFRREGRPSTDAILTCRLIDRPLRPSFVDGLRNEIQIVVTILSLDPGDLYDVLAINAASASTQLGGLPFSGPIGGVRVALIDGTWVGFPTVDQIERAVFDMVVAGRIVEGDVAIMMVEAEATENVVELVEGGAQAPTESVVAAGLEAAKPFIAALCTAQQELADAAGKSGKPTVDFPVFPDYGEDVYYSVSSVATDELAAALTIGGKAERDQRIDEIKTQVVQRLADTYEGREKEVGAALRALTKKLVRQRILTDHFRIDGRGITDIRALSAEVAVVPRAHGSALFERGETQILGVTTLDMIKMAQQIDSLGPETSKRYMHHYNFPPFSTGETGRVGSPKRREIGHGALAERALVPVLPSVEEFPYAIRQVSEALGSNGSTSMGSVCASTLALLNAGVPLKAPVAGIAMGLVSDDIQVEGAVDGVVERRFVTLTDILGAEDAFGDMDFKVAGTKDFVTALQLDTKLDGIPSQVLAGALEQAKDARLTILEVMAEAIDRPDEMSPYAPRVTTIKVPVDKIGEVIGPKGKVINAITEETGAQISIEDDGTVFVGATDGPSAQAAIDKINAIANPQLPTVGERFLGTVVKTTDFGAFVSLLPGRDGLVHISKLGKGKRIAKVEDVVNVGDKLRVEIADIDKRGKISLILVADEDSTAAATDAATVTS | not soluble
5 | FWMELQAVDSYQVKASGILTGADRKIITMLYQPLMGAECLALYQTLFTEVEENRLWSEAHSHVQLLNMLDISLKALFEARLKLEGLGLLKSYVKTENDQRFYIYEILPPLSPEKFFSDGLLNIYLYSKIGNAQFQRLRRFFADETFETDTYSEITRSFQDVFEPFKGGSSAVPSESSQVLVDKIVPKEIEFDDASFDFNLFLSLLSPGMIAREKITKEVRQTILKLHGIYQVSEKDMPSYLYRALDANGEIDIVYLRKIVREGYTIENGAPPKLQMKQETPGKKEPEEALNDEEALQVYLESITPFQLLVDISDGAIPAETDLRVVEEVMNQQNLPVPVMNVLIEYVLLRLDRKLSKNYMMTIAAHWKRKNVKTAKEAMDLAWQEHEKYKRLQEEPATPKNNNYNRNYQKSTRKEILPDWFDKEQVAPAENKMTDKEKQTLEEQVREIKERLNKR | not soluble
6 | MLEEDKIKGMFNPKIWDKTFQDGLKKEIEDSQPYNWGTIHELVNDDLLRAVRKEIETEIHFTKKETDIYRVNQSGDLANLSGLDWDDLSRLPNLFKLRQILYSKQYRDFFGYVTKAGKLSGSKTDMSINTYTKGCHLLTHDDVIGSRRISFILYLPDPDRKWKSHYGGGLRLFPSILPNVPHSDPSAKLVPQFNQIAFFKVLPGFSFHDVEEVKVDKHRLSIQGWYHIPQVGEEGYIPGEEEAWVRNNTSTLAQIESNVLEDFEFPKDERNILSFHEVKHFEKMLKGDAGAKTDNTPKESMTSVISDSVKLSEAEFTYLSQYISPEHLSSKGIEKLQKQFVENSSLQIESFLNDDKSELLKKVIKQKELEQECPYHSKDVKAPWKTAIPPHKARYLYIDGKEYRNFQTEADILEALNNNDLPNFQFTKDAIKIISDASGNSRENNFDAELALIDLAVFHKSTIFKKYLALLTSLCPVSEQILIRRFRPGMDFTLATKCRFNELLKSNPDIIDAVLEGTLCLTPSAGWESGELGGYELYMMDDDEDNKQYLKEDVEDASVYRADDSGDSVLINDPPAWNTFNLVLRDESVLEFVKYVSWSAKSSRWDVKMKWDVKSCDEDGQEDEALEHHHHHH | soluble
7 | ETIELYKSSVPSGKEAGKNALAITNQQLISALENAAKDNKTSQPQARSLTASDQVQITQSSDKVIGYITTSNLDIDNNNTFDVGKLNGDKSTSKIIVNATLKTLNKINTLQSEEGIILPHPQKYKSTDPQAVATVQGPSIIGVHANAKENAETQKFINW | not soluble
8 | MGSDKIHHHHHHMSTDNDTETDDSGGHCSTPDSDGEVAEDIAIVAFERKRDTAAEIVAGIGDRYDSIDILDYHGDVFAEHWGEYDCFVGLMASGIAMRKTAGLLDDKWEDPAVVVVDEALTWAIPLTGGHHGANQVADDLASMGAVPAMTTASEAAGKQGVEERAKALDTHVVNGDSTVATNLAVLDENLGPVARLDGPQAVVVGDDVTVLKRNSDDGVVLGTGSVSGADEQQFRDAWAASLAATDYDIDDVEFVATGTRKADEEGLLAAAEALGLGVVAFEKETLEAHEGPTPSRSKELIGWPGIAEASAIAGGRDNELLAEKERYDEAVTVAVGK | not soluble
9 | MNKKEIQAYQSAFEKFNPFYGVDFPITSVKLCELINKMRNDHNEKVVELRHDHLMNKIREFSEQVNAPNFRVVESSYKDTKGEDRKCYLLGKTECRAIAATESKSVCYMIMVYLDQLEQIFEKAKEAKATEFDRKLSKQGVTWREACRTVGIEHPDLALK | not soluble
10 | MGSDKIHHHHHHMSTQYWEEEIEIMSREKLQELQLQRLKKTINIAANSPYYKEVFSKNGITGDSIQSLDDIRKIPFTTKSDMRANYPFGLVAGDMKRDGVRIHSSSGTTGNPTVIVHSQHDLDSWANLVARCLYMVGIRKTDVFQNSSGYGMFTGGLGFQYGAERLGCLTVPAAAGNSKRQIKFISDFKTTALHAIPSYAIRLAEVFQEEGIDPRETTLKTLVIGAEPHTDEQRRKIERMLNVKAYNSFGMTEMNGPGVAFECQEQNGMHFWEDCYLVEIIDPETGEPVPEGEIGELVLTTLDREMMPLIRYRTRDLTRILPGKCPCGRTHLRIDRIKGRSDDMFIIKGVNIFPMQVEKILVQFPELGSNYLITLETVNNQDEMIVEVELSDLSTDNYIELEKIRRDIIRQLKDEILVTPKVKLVKKGSLPQSEGKAVRVKDLRDNK | not soluble
11 | MSLKITNEMQTKAETKIHRTTKVGDPSFQQMVQSQTKQLNQQQFHQLVQQISKQGSKLAQYRSFRELVKFKRMVKSFLDKAVVQGYKLEKSHSFGLQGSRHLSIVKAVDEKLIQLAEDIMDEEKKTVDILGLIGEIKGLLINIYTEGHHHHHH | soluble
12 | MSMNRQEISDLCVKSLEGRMVGTEAQNIENGNAFYRYFFTNFPDLRVYFKGAEKYTADDVKKSERFDKQGQRILLACHLLANVYTNEEVFKGYVRETINRHRIYKMDPALWMAFFTVFTGYLESVGSLNDQQKAAWMALGKEFNAESQTHLKNSNLPHV | soluble
13 | MGSDKIHHHHHHMTVIAVAGKGGTGKTLVSALLINFISEHTTSVLAVDADPDSNLPEALGVEKQVRKTLGEIRELFQVSRDEMGSMNKEQWLEGKIYAEAICECPRYDLLVMGRPEGEGCYCFANSLLRGVLKRLMRHYEYIIIDTEAGLEHFSRKTIDSADYIIIVTDMSRKGLATAKRIKELASELKLNFKKIFLIANRIASEDAEKTIREFAKEEGLELLAVLPYDSSVAEIDLRGEPVSKIDKNSEVYRKMKDVANLMLNLSAKAR | not soluble
